Assay results from patent CN116333117A (LAITEKANG SUZHOU BIOPHARMACEUTICAL CO LTD, dated 2023).

Experiments:
HER4 = molecular target: T1, HER4 (human, UniProt Q15303 26-649, limits assumed); assay: ELISA, coated HER4, antibody in 3-fold dilutions
T1 construct: also called ErbB4
T1 sequence (looked up): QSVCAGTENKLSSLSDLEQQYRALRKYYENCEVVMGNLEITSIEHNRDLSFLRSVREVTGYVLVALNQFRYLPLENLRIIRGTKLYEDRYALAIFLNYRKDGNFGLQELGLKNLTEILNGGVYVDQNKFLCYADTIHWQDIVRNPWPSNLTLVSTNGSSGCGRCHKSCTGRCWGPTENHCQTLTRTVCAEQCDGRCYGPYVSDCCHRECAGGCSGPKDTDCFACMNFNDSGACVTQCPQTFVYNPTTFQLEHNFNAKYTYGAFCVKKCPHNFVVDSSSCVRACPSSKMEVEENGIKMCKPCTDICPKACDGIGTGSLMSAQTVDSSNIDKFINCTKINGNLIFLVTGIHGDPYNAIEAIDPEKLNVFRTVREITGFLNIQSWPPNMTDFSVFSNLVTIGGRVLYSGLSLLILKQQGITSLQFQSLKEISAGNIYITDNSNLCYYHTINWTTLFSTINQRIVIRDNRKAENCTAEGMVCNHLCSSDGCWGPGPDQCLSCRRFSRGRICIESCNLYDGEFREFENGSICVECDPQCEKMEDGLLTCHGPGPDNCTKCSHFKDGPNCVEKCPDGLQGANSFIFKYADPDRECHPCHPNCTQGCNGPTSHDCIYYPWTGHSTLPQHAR

[1] = molecular target: T2, hEGFR/ECD-his (自制的C-末端具有his标签的人EGFR胞外域蛋白全长) (human, UniProt P00533 25-645); assay: BLI (ForteBio Qke), antibody on Protein A probes, hEGFR in solution from 20 ug/mL in 1:2 dilutions
T2 construct: extracellular domain; Home-made antigen; also called hEGFR/EDC-his; hEGFR/EGFR-his; not shown: C-terminal his tag

HER2 = molecular target: T3, HER2 (human, UniProt P04626 23-652, limits assumed); assay: ELISA, coated HER2, antibody in 3-fold dilutions
T3 construct: also called ErbB2

[2] = molecular target: T2, hEGFR/ECD-his …; assay: ELISA, coated hEGFR/ECD-his 1 ug/mL, anti-hIgG Fc-HRP
HER3 = molecular target: T4, HER3 (human, UniProt P21860 20-643, limits assumed); assay: ELISA, coated HER3, antibody in 3-fold dilutions
T4 construct: also called ErbB3
T4 sequence (P21860 20-643 limits assumed): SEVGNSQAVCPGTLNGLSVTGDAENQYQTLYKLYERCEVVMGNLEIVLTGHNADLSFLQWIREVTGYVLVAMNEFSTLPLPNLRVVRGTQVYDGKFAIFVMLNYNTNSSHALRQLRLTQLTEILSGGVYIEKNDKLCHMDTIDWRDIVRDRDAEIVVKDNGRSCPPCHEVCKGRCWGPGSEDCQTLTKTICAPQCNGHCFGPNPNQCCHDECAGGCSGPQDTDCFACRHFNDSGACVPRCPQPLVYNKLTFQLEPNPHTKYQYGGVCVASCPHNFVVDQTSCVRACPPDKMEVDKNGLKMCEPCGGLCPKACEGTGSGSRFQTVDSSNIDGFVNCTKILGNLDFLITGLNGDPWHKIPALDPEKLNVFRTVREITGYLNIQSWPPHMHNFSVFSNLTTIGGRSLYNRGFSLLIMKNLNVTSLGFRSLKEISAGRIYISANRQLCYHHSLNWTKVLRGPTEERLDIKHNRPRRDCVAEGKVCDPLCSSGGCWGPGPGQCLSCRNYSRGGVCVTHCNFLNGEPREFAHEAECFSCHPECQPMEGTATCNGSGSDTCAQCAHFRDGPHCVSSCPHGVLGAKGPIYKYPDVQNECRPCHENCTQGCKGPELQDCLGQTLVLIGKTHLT

B1: mouse anibody1129 (mAb1129) (antibody, V domains shown)
VH: DVMLVESGGGLVKPGGSLKLSCAASGFAFSNYDMSWVRQTPEKRLEWVAYISSGGDITYYLDTVKGRFTISRDNAKNTLYLQMSSLKSEDTAMYYCARSHYGYYGDTMDYWGQGTSVTVSS
VL: DVVMTQTPLSLPVSLGDQASISCRSSQSLVHSNGNTYLHWYLQKPGQSPKLLIYKVSNRFSGVPDRFSGSGSGTDFTLKISRVEAEDLGVYFCSQSTHVPPTFGGGTKLEIK
notes: also called 抗EGFR抗体mAb1129; 小鼠抗EGFR抗体; not shown: human kappa light chain constant region
binding result (HER4): no binding (tested: 起始浓度为2μg/mL)
Kd [1]: ~2.03 nM
binding result (HER2): no binding (tested: 起始浓度为2μg/mL)
EC50 [2]: ~0.0199 µg/mL
binding result (HER3): no binding (tested: 起始浓度为2μg/mL)
